Laboratory results from patent US20240392276.

Target: eGFP displaying an MBP tag connected with a TEV cleavage site (MBP-TEVsite-eGFP)

B1: His-CBD-TEV protease (protein)
chain: HHHHHHGSGSSGLTTNPGVSAWQVNTAYTAGQLVTYNGKTYKCLQPHTSLAGWEPSNVPALWQLQGSGSSGESLFKGPRDYNPISSSICHLTNESDGHTTSLYGIGFGPFIITNKHLFRRNNGTLVVQSLHGVFKVKDTTTLQQHLVDGRDMIIIRMPKDFPPFPQKLKFREPQREERICLVTTNFQTKSMSSMVSDTSCTFPSGDGIFWKHWIQTKDGQCGSPLVSTRDGFIVGIHSASNFTNTNNYFTSVPKNFMELLTNQEAQQWVSGWRLNADSVLWGGHKVFMSKPEEPFQPVKEATQLMN
- digestion on Bis-tris protein gel (protease activity): In the presence of His-CBD-TEV, MBP-TEVsite-eGFP is cleaved into the MBP tag (43 kDa) and eGFP (33 kDa)
